Data taken from patent US8759300B2, “Polypeptides and methods of use” (The Research Foundation for the State University of New York, priority 2007, dated 2014).
Read-outs that look alike come from different tables or passages of the source.

Tests used:
[1] = molecular target: T1, PDGF-BB (Homo sapiens, UniProt P01127); assay: Equilibrium binding of 125I-PDGF-BB to FN, FN domains and peptides; settings: for Kd: equilibrium binding
Procedure: (§1) 20 μl of 50% v/v peptide-agarose beads are incubated with 125I-PDGF in 0.1 ml of binding buffer (DMEM+2% BSA) at room temperature for 2 hours with rotation. Beads are washed 6 times with DMEM. Bound PDGF-BB are released by the addition of 100 μl of 1M NaOH. The radioactivity bound to FN-beads are quantified in a γ-counter. Nonspecific binding are established from ^125I-PDGF binding to nonconjugated beads, then specific binding derived by subtraction of nonspecific binding from total binding. Binding constants (KD) and Bmax are determined from nonlinear regression of specific binding curves using Prism 4 from GraphPad Software, San Diego, Calif. “Scatchard plots” are derived from the KD and Bmax obtained with non linear regression analysis.

[2] = molecular target: bFGF (FGF-2) (Homo sapiens, UniProt P09038); assay: Equilibrium binding of bFGF (FGF-2) to FN and FN domains; settings: method not restated (equilibrium and kinetic binding performed); read-out: KD, bFGF binding
Procedure: [The source words this procedure for another target and reports this target under the same test.] as §1

[3] = molecular target: T2, TGF-β1 (Homo sapiens, UniProt P01137); assay: Equilibrium binding of TGF-β1 to FN, FN domains and peptides
Procedure: [The source words this procedure for another target and reports this target under the same test.] as §1

[4] = molecular target: T1, PDGF-BB; assay: Surface plasmon resonance (Biacore), PDGF-BB; format: binding
Procedure: (§2) In the Biacore2000 system, binding constants from kinetic data are determined by passing varying concentrations of FN peptides (analytes) over chip surfaces which are coupled with PDGF-BB (ligand), respectively. All kinetic experiments are carried out at 20° C. at a flow rate of 20 μl/min. For mass transport experiments, each analyte is injected at a fixed concentration and run at flow rates ranging from 5 to 75 μl/min. All analytes are injected over PDGF-BB ligand surfaces as well as over a control surface for 120 s, followed by 300 s of dissociation in running buffer. Regeneration of the sensor chip for subsequent injections is accomplished by pulse of 0.1% SDS. Mass transport experiments have detected little difference in response at different flow rates thus validating data from kinetic experiments. Sensorgrams are prepared and globally fitted using nonlinear least-squares analysis and numerical integration of the differential rate equations with the Biacore Bioevaluation software. Each sensogram generated using a control surface is substracted from the corresponding experimental sensorgrams, and the resulting curves are transformed to concentration units using the molecular mass of the injected species, the equivalence of 1000 resonance units (RU) per 1 ng/mm^2, and a matrix thickness of 100 nm. Each data set, which consists of a series of sensorgrams from injections of different concentration of analyte over the same surface, are analyzed using kinetic models from Biaevaluation software.

[5] = molecular target: T2, TGF-β1; assay: Surface plasmon resonance, TGF-β1; format: binding
Procedure: [The source words this procedure for another target and reports this target under the same test.] as §2

[6] = molecular target: FGF-2 (Homo sapiens, UniProt P09038); assay: Surface plasmon resonance, FGF-2; settings: read-out: KD, FGF-2 binding
Procedure: [The source words this procedure for another target and reports this target under the same test.] as §2, with “Each sensogram generated using a control surface is substracted from the corresponding experimental sensorgrams, and the resulting curves are transformed to concentration units using the molecular mass of the injected species, the equivalence of 1000 resonance units (RU) per 1 ng/mm^2, and a matrix thickness of 100 nm.” left out

[7] = tested on: GFs (TGF-β1, PDGF-BB, VEGF, FGF-2); assay: Binding of growth factors to FN domains, GFs reported together
Procedure: as §1
In the Biacore2000 system, binding constants from kinetic data are determined by passing varying concentrations of FN peptides (analytes) over chip surfaces which are coupled with PDGF-BB (ligand), respectively. All kinetic experiments are carried out at 20° C. at a flow rate of 20 μl/min. […] Mass transport experiments have detected little difference in response at different flow rates thus validating data from kinetic experiments. […] Each data set, which consists of a series of sensorgrams from injections of different concentration of analyte over the same surface, are analyzed using kinetic models from Biaevaluation software.

[8] = tested on: FN-null cells; assay: FN-null cell survival on surfaces coated with FN domains; format: cell-based, mouse; settings: for FN-null cell survival / proliferation: FNIII8-11 ± named FN domain, or named FN construct, PDGF-BB added 2 hrs after plating; for FN-null cell survival with PDGF at 3 days: surface precoated with 0.15 μM GST-tagged FNIII8-11 ± named FN domain, or named FN construct, PDGF-BB added 1 day after plating
Procedure: To further investigate the response of cells to PDGF-BB bound to FN domains, we investigated the survival response of mouse fibroblasts null for FN (FN−/−), or “FN-null”. First we determined the response of FN-null cells to PDGF-BB in the absence of serum or other sources of exogenous FN. […] Next, FN-null cells were plated on tissue culture plastic surfaces precoated with 0.15 μM GST-tagged FNIII8-11±other FN domains known to have PDGF-BB binding activity and then PDGF-BB added 1 day later. […] Importantly, differential response of FN-null cells, plated on different FN domains, to PDGF-BB was not secondary to differences in attachment as judged by cell counts two hours after plating. The FNIII8-11 central cell binding domain was present in all circumstances.

[9] = molecular target: EGF (Homo sapiens, UniProt P01133); assay: Binding of EGF to FN, FN domains and peptides
[10] = molecular target: T3, VEGF (Homo sapiens, UniProt P15692); assay: Surface plasmon resonance, VEGF; format: binding; settings: plasmon resonance; read-out: KD, VEGF binding
T3 sequence (P15692 27-191 isoform P15692-4): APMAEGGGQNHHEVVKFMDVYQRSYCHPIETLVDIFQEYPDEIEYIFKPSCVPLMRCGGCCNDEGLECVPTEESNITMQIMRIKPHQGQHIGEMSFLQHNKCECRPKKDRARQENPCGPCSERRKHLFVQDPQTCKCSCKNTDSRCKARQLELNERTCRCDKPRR

[11] = tested on: GFs (TGF-β1, PDGF-BB, VEGF, FGF-2); assay: Binding of growth factors to FN domains, GFs reported together; remark: listed apart in the source
[12] = method not restated (equilibrium and kinetic binding performed)
[13] = method not restated, read-out: KD, PDGF-BB binding
[14] = method not restated, read-out: KD, TGF-β1 binding
[15] = plasmon resonance, kinetic binding

bFGF (FGF-2), sequence (P09038 143-288): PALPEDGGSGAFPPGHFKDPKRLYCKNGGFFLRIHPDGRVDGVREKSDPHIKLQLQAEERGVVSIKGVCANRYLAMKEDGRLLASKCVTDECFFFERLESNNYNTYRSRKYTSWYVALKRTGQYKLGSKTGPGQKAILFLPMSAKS
T2 sequence (P01137 279-390 limits assumed): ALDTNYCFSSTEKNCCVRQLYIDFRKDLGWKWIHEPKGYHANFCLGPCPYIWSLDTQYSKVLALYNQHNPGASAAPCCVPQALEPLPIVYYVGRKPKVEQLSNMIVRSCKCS
T1 sequence (P01127 82-190 limits assumed): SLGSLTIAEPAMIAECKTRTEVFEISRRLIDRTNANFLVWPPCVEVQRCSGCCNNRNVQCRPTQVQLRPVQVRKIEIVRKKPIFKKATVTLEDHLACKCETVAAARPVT
FGF-2, sequence (P09038 143-288): as the sequence (P09038 143-288) above
EGF, sequence (P01133 971-1023 limits assumed, species assumed): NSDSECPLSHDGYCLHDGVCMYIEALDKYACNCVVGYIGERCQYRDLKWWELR

B1: FNIII12-13: FN domain, type III repeats 12-13 (protein)
chain: MGSAIPAPTDLKFTQVTPTSLSAQWTPPNVQLTGYRVRVTPKEKTGPMKEINLAPDSSSVVVSGLMVATKYEVSVYALKDTLTSRPAQGVVTTLENVSPPRRARVTDATETTITISWRTKTETITGFQVDAVPANGQTPIQRTIKPDVRSYTITGLQPGTDYKIYLYTLNDNARSSPVVIDASTTSHHHHHHC
Kd [1]: 0.075 µM

B2: FNIII12-15: heparin II binding domain of FN (protein)
chain: MGSTIPAPTDLKFTQVTPTSLSAQWTPPNVQLTGYRVRVTPKEKTGPMKEINLAPDSSSVVVSGLMVATKYEVSVYALKDTLTSRPAQGVVTTLENVSPPRRARVTDATETTITISWRTKTETITGFQVDAVPANGQTPIQRTIKPDVRSYTITGLQPGTDYKIYLYTLNDNARSSPVVIDASTAIDAPSNLRFLATTPNSLLVSWQPPRARITGYIIKYEKPGSPPREVVPRPRPGVTEATITGLEPGTEYTIYVIALKNNQKSEPLIGRKKTGQEALSQTTISWAPFQDTSEYIISCHPVGTDEEPLQFRVPGTSTSATLTGLTRGATYNVIVEALKDQQRHKVREEVVTVGNSVNEGTSHHHHHHC
Kd [2]: 0.13 µM | Kd [1]: 0.0068 µM | Kd [3, 12]: 0.016 µM | Kd [4, 13]: 0.0068 µM | Kd [5, 14]: 0.016 µM | Kd ([6]; method not restated): 0.17 µM

B3: FNIII1-7: FN domain, type III repeats 1-7 (protein)
chain: MGSGPVEVFITETPSQPNSHPIQWNAPQPSHISKYILRWRPKNSVGRWKEATIPGHLNSYTIKGLKPGVVYEGQLISIQQYGHQEVTRFDFTTTSTSTPVTSNTVTGETTPFSPLVATSESVTEITASSFVVSWVSASDTVSGFRVEYELSEEGDEPQYLDLPSTATSVNIPDLLPGRKYIVNVYQISEDGEQSLILSTSQTTAPDAPPDTTVDQVDDTSIVVRWSRPQAPITGYRIVYSPSVEGSSTELNLPETANSVTLSDLQPGVQYNITIYAVEENQESTPVVIQQETTGTPRSDTVPSPRDLQFVEVTDVKVTIMWTPPESAVTGYRVDVIPVNLPGEHGQRLPISRNTFAEVTGLSPGVTYYFKVFAVSHGRESKPLTAQQTTKLDAPTNLQFVNETDSTVLVRWTPPRAQITGYRLTVGLTRRGQPRQYNVGPSVSKYPLRNLQPASEYTVSLVAIKGNQESPKATGVFTTLQPGSSIPPYNTEVTETTIVITWTPAPRIGFKLGVRPSQGGEAPREVTSDSGSIVVSGLTPGVEYVYTIQVLRDGQERDAPIVNKVVTPLSPPTNLHLEANPDTGVLTVSWERSTTPDITGYRITTTPTNGQQGNSLEEVVHADQSSCTFDNLSPGLEYNVSVYTVKDDKESVPISDTIIPETSHHHHHHC
Kd [2]: 0.0041 µM | Kd [1]: 0.075 µM | Kd ([3]; equilibrium binding): 0.017 µM | Kd [4, 15]: 0.1 µM | Kd [5, 15]: 0.018 µM | Binding of the GFs tested, in words [7]: all four GFs bound

B4: FNIII3-6: recombinant FN domain, type III repeats 3-6 (protein)
chain: MGSAPPDTTVDQVDDTSIVVRWSRPQAPITGYRIVYSPSVEGSSTELNLPETANSVTLSDLQPGVQYNITIYAVEENQESTPVVIQQETTGTPRSDTVPSPRDLQFVEVTDVKVTIMWTPPESAVTGYRVDVIPVNLPGEHGQRLPISRNTFAEVTGLSPGVTYYFKVFAVSHGRESKPLTAQQTTKLDAPTNLQFVNETDSTVLVRWTPPRAQITGYRLTVGLTRRGQPRQYNVGPSVSKYPLRNLQPASEYTVSLVAIKGNQESPKATGVFTTLQPGSSIPPYNTEVTETTIVITWTPAPRIGFKLGVRPSQGGEAPREVTSDSGSIVVSGLTPGVEYVYTIQVLRDGQERDAPIVNKVVTPLSTSHHHHHHC
FN-null cell survival / proliferation, summary statement ([8]; cells plated on named FN construct, or on FNIII8-11 ± named domain): did not support cell survival | PDGF-BB binding, in words ([1]; equilibrium binding and/or plasmon resonance): did not | PDGF-BB binding, in words ([4]; surface resonance): no binding | Binding of the GFs tested, in words [7]: In no case did any GF bind

B5: FNIII12-14: recombinant heparinII-binding domain of FN, type III repeats 12-14 (protein)
chain: MGSAIPAPTDLKFTQVTPTSLSAQWTPPNVQLTGYRVRVTPKEKTGPMKEINLAPDSSSVVVSGLMVATKYEVSVYALKDTLTSRPAQGVVTTLENVSPPRRARVTDATETTITISWRTKTETITGFQVDAVPANGQTPIQRTIKPDVRSYTITGLQPGTDYKIYLYTLNDNARSSPVVIDASTAIDAPSNLRFLATTPNSLLVSWQPPRARITGYIIKYEKPGSPPREVVPRPRPGVTEATITGLEPGTEYTIYVIALKNNQKSEPLIGRKKTTSHHHHHHC
Kd [2]: 0.0019 µM | FN-null cell survival / proliferation [8]: enhance survival | FN-null cell survival with PDGF at 3 days [8]: increased survival | Kd [1]: 0.035 µM | Kd [3, 12]: 0.0076 µM | Kd [4, 13]: 0.055 µM | Kd [5, 14]: 0.0076 µM

B6: IIICS: variably-spliced IIICS domain of FN (protein)
chain: MGSDELPQLVTLPHPNLHGPEILDVPSTVQKTPFVTHPGYDTGNGIQLPGTSGQQPSVGQQMIFEEHGFRRTTPPTTATPIRHRPRPYPPNVGEEIQIGHIPREDVDYHLYPHGPGLNPNASTTSHHHHHHC
EGF binding, in words [9]: failed to bind | FN-null cell survival / proliferation [8]: enhance survival | FN-null cell survival with PDGF at 3 days [8]: increased survival | Kd [1]: 0.35 µM | Kd [3, 12]: 0.074 µM

B7: FNIII12-V15: composite heparinII-binding and variably-spliced IIICS domains of FN (protein)
chain: MGSAIPAPTDLKFTQVTPTSLSAQWTPPNVQLTGYRVRVTPKEKTGPMKEINLAPDSSSVVVSGLMVATKYEVSVYALKDTLTSRPAQGVVTTLENVSPPRRARVTDATETTITISWRTKTETITGFQVDAVPANGQTPIQRTIKPDVRSYTITGLQPGTDYKIYLYTLNDNARSSPVVIDASTAIDAPSNLRFLATTPNSLLVSWQPPRARITGYIIKYEKPGSPPREVVPRPRPGVTEATITGLEPGTEYTIYVIALKNNQKSEPLIGRKKTDELPQLVTLPHPNLHGPEILDVPSTVQKTPFVTHPGYDTGNGIQLPGTSGQQPSVGQQMIFEEHGFRRTTPPTTATPIRHRPRPYPPNVGEEIQIGHIPREDVDYHLYPHGPGLNPNASTGQEALSQTTISWAPFQDTSEYIISCHPVGTDEEPLQFRVPGTSTSATLTGLTRGATYNVIVEALKDQQRHKVREEVVTVGNSVNEGTSHHHHHHC
Kd [10]: 0.0006 µM | Kd [2]: 0.037 µM | FN-null cell survival / proliferation [8]: enhance survival | Kd [1]: 0.021 µM | Kd ([3]; equilibrium binding): 0.097 µM | Kd [4, 15]: 0.017 µM | GF binding with up to 2.5 M NaCl or pH lowered to about 2.0 [11]: failed to demonstrate any diminution | Kd ([6]; plasmon resonance): 0.037 µM
